Results taken from US20130136721A1, “Compositions and Methods of Generating a Differentiated Mesodermal Cell” (THE JOHNS HOPKINS UNIVERSITY, priority 2010, published 2013).
“Also recorded” adds a separate entry of the source.

Legend:
H9 hESC = assay: Beating hEB assay (contracting hEB after forced aggregation cardiac differentiation); assay type: cell-based, human; details: for effect on cardiac differentiation, phase 3 medium: supplement in d2-d4 medium; for effect on cardiac differentiation, phase 3 medium / effect on cardiac differentiation, phase 2 medium: contracting hEB d9; for effect on cardiac differentiation, phase 2 medium: supplement in d0-d2 medium
Description: The cardiac differentiation protocol was divided into four distinct phases for optimization (FIG. 3A): phase 1: uniform undifferentiated growth; phase 2: hEB formation/mesoderm induction; phase 3: hEB cardiac specification; phase 4: contracting cardiomyocyte development. […] After an initial round of optimizations had been completed, optimizations was repeated a second time to account for the new media formulations and then a third time to optimize the final media formulation. In some cases fourth and fifth repeats were performed to improve the statistical power of the results. For each variable tested, the bell-curve distribution of dose-response was determined. Results shown are averages of the 2nd-5th replicates (FIG. 2B).
For forced aggregation hEB differentiations, confluent hESC or hiPSC which had been grown on a commercially available extracellular matrix, Geltrex (Invitrogen) as monolayers for 3 to 13 passages were passaged with TrypLE Select and seeded at 2.5×10^6 per T25 flask. After 24 hours growth, cells were washed with PBS and treated with room temperature TrypLE Select for 1 minute at 37° C. Cells were seeded at 5000 cells per well in 96-well V-bottom uncoated plates (249952, NUNC) in 100 μL per well RPMI+PVA medium consisting of RPMI Media 1640 (with L-Glutamine), 4 mg mL-1 polyvinyl alcohol (P8136, Sigma, dissolved in RPMI at 4° C. for at least 72 hours, mixing by inversion every day), 1% chemically defined lipid concentrate, 10 μg mL-1 recombinant human insulin (Sigma), 400 μM 1-thioglycerol (Sigma), 25 ng mL-1 BMP4 and 5 ng mL-1 FGF2 (both from R&D systems), 1 μM Y-27632 (Calbiochem). This medium is not stable and was made fresh for each experiment. After 48 hours (on day 2) medium was aspirated with a Costar 8-channel aspirator (Corning) and replaced with RPMI+FBS medium consisting RPMI Media 1640, 20% characterized FBS (Hyclone), 400 μM 1-thioglycerol. On day 4 media was changed to RPMI+PVA without growth factors and hEB were transferred to 96-well U-bottom tissue culture treated plates (650180, Greiner Bio-One). Media was changed on d7 and every 3 days afterwards. hEB were visually assessed for contraction on d9 using a Nikon Eclipse Ti inverted tissue culture microscope with a TOKAI-HIT heated stage (Nikon). Images were captured using NIS-Elements (Nikon). […] For traditional cardiac differentiations using FBS, undirected differentiation was performed as previously described (Kehat et al. J Clin Invest 108, 407-414 (2001)): briefly, confluent H9 hESC grown as colonies on MEF were treated with collagenase IV for 5 minutes at 37° C. then washed from the plate using a 5 mL pipette. Cell clusters were then transferred to Petri dishes in 20% FBS medium for 7 days. hEB were then transferred to gelatin coated tissue culture plates. Media was changed every 3 days.
One single replicate consists of one 96-well plate. Repeat replicates were performed 1-4 months apart using a different vial of cells. Each experiment was repeated at least 3 times representing at least 288 hEB. Total number of hEB assessed in this work exceeds 80,000. Wells in which no hEB was detected due to pipeting error were excluded and accounted for approximately 1-5% of wells. P-values were established using unpaired two-tailed Student's t-test.

iPS(IMR90)-1 hiPSC = assay: as above; assay type: cell-based, human; details: d0-d2
Description: The cardiac differentiation protocol was divided into four distinct phases for optimization (FIG. 3A): phase 1: uniform undifferentiated growth; phase 2: hEB formation/mesoderm induction; phase 3: hEB cardiac specification; phase 4: contracting cardiomyocyte development. A simple beating hEB assay was used to sequentially assess improvements in cardiac differentiation in each of these four phases by counting the number of hEB contracting after nine days of differentiation, a time point that was identified as the day of maximum percentage contraction in the enhanced ‘prototype’ version of the protocol (FIG. 1B). After an initial round of optimizations had been completed, optimizations was repeated a second time to account for the new media formulations and then a third time to optimize the final media formulation. […] For each variable tested, the bell-curve distribution of dose-response was determined. […]
For forced aggregation hEB differentiations, confluent hESC or hiPSC which had been grown on a commercially available extracellular matrix, Geltrex (Invitrogen) as monolayers for 3 to 13 passages were passaged with TrypLE Select and seeded at 2.5×10^6 per T25 flask. […] Media was changed on d7 and every 3 days afterwards. hEB were visually assessed for contraction on d9 using a Nikon Eclipse Ti inverted tissue culture microscope with a TOKAI-HIT heated stage (Nikon). […]

B1: DKK1: additional supplement to serum-free d2-d4 medium (protein, UniProt O94907 32-266, looked up)
Dickkopf-related protein 1: TLNSVLNSNAIKNLPPPLGGAAGHPGSAVSAAPGILYPGGNKYQTIDNYQPYPCAEDEECGTDEYCASPTRGGDAGVQICLACRKRRKRCMRHAMCCPGNYCKNGICVSSDQNHFRGEIEETITESFGNDHSTLDGYSRRTTLSSKMYHTKGQEGSVCLRSSDCASGLCCARHFWSKICKPVLKEGQVCTKHRRKGSHGLEIFQRCYCGEGLSCRIQKDHHQASNSSRLHTCQRH
effect on cardiac differentiation, xeno- and serum-free d2-d4 medium (H9 hESC; supplement in serum-free d2-d4 medium): did not further enhance differentiation

B2: BMP4: bone morphogenic protein 4, mesodermal morphogen growth factor (protein, UniProt P12644 293-408, looked up)
Bone morphogenetic protein 4: SPKHHSQRARKKNKNCRRHSLYVDFSDVGWNDWIVAPPGYQAFYCHGDCPFPLADHLNSTNHAIVQTLVNSVNSSIPKACCVPTELSAISMLYLDEYDKVVLKNYQEMVVEGCGCR
most effective BMP4 concentration (H9 hESC; d0-d2): 25 ng/mL | effect on cardiac differentiation, phase 3 medium (H9 hESC): did not further enhance this phase; also recorded: did not enhance cardiac differentiation | most effective BMP4 concentration (iPS(IMR90)-1 hiPSC): 5 ng/mL

B3: transferrin: bovine transferrin media supplement (protein, UniProt Q29443 20-704, looked up)
Serotransferrin: DPERTVRWCTISTHEANKCASFRENVLRILESGPFVSCVKKTSHMDCIKAISNNEADAVTLDGGLVYEAGLKPNNLKPVVAEFHGTKDNPQTHYYAVAVVKKDTDFKLNELRGKKSCHTGLGRSAGWNIPMAKLYKELPDPQESIQRAAANFFSASCVPCADQSSFPKLCQLCAGKGTDKCACSNHEPYFGYSGAFKCLMEGAGDVAFVKHSTVFDNLPNPEDRKNYELLCGDNTRKSVDDYQECYLAMVPSHAVVARTVGGKEDVIWELLNHAQEHFGKDKPDNFQLFQSPHGKDLLFKDSADGFLKIPSKMDFELYLGYEYVTALQNLRESKPPDSSKDECMVKWCAIGHQERTKCDRWSGFSGGAIECETAENTEECIAKIMKGEADAMSLDGGYLYIAGKCGLVPVLAENYKTEGESCKNTPEKGYLAVAVVKTSDANINWNNLKDKKSCHTAVDRTAGWNIPMGLLYSKINNCKFDEFFSAGCAPGSPRNSSLCALCIGSEKGTGKECVPNSNERYYGYTGAFRCLVEKGDVAFVKDQTVIQNTDGNNNEAWAKNLKKENFEVLCKDGTRKPVTDAENCHLARGPNHAVVSRKDKATCVEKILNKQQDDFGKSVTDCTSNFCLFQSNSKDLLFRDDTKCLASIAKKTYDSYLGDDYVRAMTNLRQCSTSKLLEACTFHKP
effect on cardiac differentiation, phase 2 medium (H9 hESC): either did not further enhance differentiation or had negative effects on differentiation | effect on cardiac differentiation, phase 3 medium (H9 hESC): Neither transferrin, L-ascorbic acid, lipids or NEAA enhanced this phase of differentiation | effect on cardiac differentiation, phase 4 medium (H9 hESC; supplement in d4 onwards medium): not required

B4: BMP6: growth factor titrated between 1-100 ng mL-1 (protein, UniProt P22004 375-513, looked up)
Bone morphogenetic protein 6: SASSRRRQQSRNRSTQSQDVARVSSASDYNSSELKTACRKHELYVSFQDLGWQDWIIAPKGYAANYCDGECSFPLNAHMNATNHAIVQTLVHLMNPEYVPKPCCAPTKLNAISVLYFDDNSNVILKKYRNMVVRACGCH
effect on cardiac differentiation, phase 2 medium (H9 hESC): none were found to have the same potency as BMP4

B5: NODAL: growth factor titrated between 1-100 ng mL-1 (protein, UniProt Q96S42 238-347, looked up)
Nodal homolog: HHLPDRSQLCRKVKFQVDFNLIGWGSWIIYPKQYNAYRCEGECPNPVGEEFHPTNHAYIQSLLKRYQPHRVPSTCCAPVKTKPLSMLYVDNGRVLLDHHKDMIVEECGCL
effect on cardiac differentiation, phase 2 medium (H9 hESC): none were found to have the same potency as BMP4

B6: activin A: growth factor titrated between 1-100 ng mL-1 (protein, UniProt P08476 311-426, looked up)
Inhibin beta A chain: GLECDGKVNICCKKQFFVSFKDIGWNDWIIAPSGYHANYCEGECPSHIAGTSGSSLSFHSTVINHYRMRGHSPFANLKSCCVPTKLRPMSMLYYDDGQNIIKKDIQNMIVEECGCS
effect on cardiac differentiation, phase 2 medium (H9 hESC): none were found to have the same potency as BMP4

B7: TDGF1: growth factor titrated between 1-100 ng mL-1 (protein, UniProt P13385 31-150, looked up)
Protein Cripto: LGHQEFARPSRGYLAFRDDSIWPQEEPAIRPRSSQRVPPMGIQHSKELNRTCCLNGGTCMLGSFCACPPSFYGRNCEHDVRKENCGSVPHDTWLPKKCSLCKCWHGQLRCFPQAFLPGCD
effect on cardiac differentiation, phase 2 medium (H9 hESC): none were found to have the same potency as BMP4
